Legend:
[1] = substrate: O=C(O)C(=O)C[C@H](O)CO; test: C. crescentus 2-keto-3-deoxy-D-xylonate dehydratase, coupled assay with KGSADH; assay type: biochemical, Caulobacter crescentus; settings: other: coupled assay, substrate from 0-20 mM D-xylonate, 1 mM NAD+, pH 7.5, 25° C.
Experimental: (§1) 2-Keto-3-deoxy-D-xylonate dehydratase (XylX/DR64-8450), 2-keto-3-deoxy-L-arabonate dehydratase (AraD) and 5-keto-4-deoxy-D-glucarate dehydratase (YcbC): Enzyme activities of XylX, DR64-8450, AraD and YcbC were assayed spectrophotometrically in a coupled assay with the corresponding previous dehydratase and 2-ketoglutaric semialdehyde dehydrogenase (KGSADH) as previously described (Watanabe et al., 2006. J Biol. Chem. 281:33521-33536). […] The reaction was initiated by adding an appropriate amount of 2-keto-3-deoxy-D-xylonate dehydratase (XylX/DR64-8450)/2-keto-3-deoxy-L-arabonate dehydratase (AraD)/5-keto-4-deoxy-D-glucarate dehydratase (YcbC), and the increasing absorbance at 340 nm caused by NADH produced in the reaction was monitored.

[2] = substrate: O=C(O)[C@H]1OC(O)[C@H](O)[C@@H](O)[C@H]1O; test: purified protein, by the assay type; settings: other: D-galacturonate 0 to 10 mM, 1 mM NAD+, pH 7.5, 30° C., 30.0 °C
[3] = substrate: O=C(O)[C@@H](O)[C@H](O)[C@H](O)[C@@H](O)C(=O)O; test: purified protein, by the assay type; settings: other: 100 nM enzyme, 100 mM Tris-HCl, 5 mM MgSO4, pH 7.5
[4] = substrate: O=C(O)[C@H](O)[C@@H](O)[C@H](O)CO; test: C. crescentus D-xylonate dehydratase, semicarbazide method; assay type: biochemical, Caulobacter crescentus; settings: other: 100 nM enzyme, 100 mM Tris-HCl, 5 mM MgSO4, pH 7.5
Excerpt: (§2) Finally, the 2-ketoacids produced were quantified by detecting their semicarbazone absorbance at 250 nm.

[5] = substrate: O=C(O)[C@H](O)[C@@H](O)[C@@H](O)CO; test: L-arabonate dehydratase, semicarbazide method; assay type: biochemical, Burkholderia multivorans; settings: other: 100 nM enzyme, 100 mM Tris-HCl, 5 mM MgSO4, pH 7.5
Excerpt: as §2

[6] = substrate: O=C(O)C(=O)C[C@@H](O)CO; test: 2-keto-3-deoxy-L-arabonate dehydratase, coupled assay with KGSADH; assay type: biochemical, Burkholderia multivorans; settings: other: coupled assay, substrate from 0-20 mM L-arabonate, 1 mM NAD+, pH 7.5, 25° C.
Experimental: as §1

[7] = substrate: O=C(O)[C@H](O)[C@@H](O)[C@H](O)CO; test: B. xenovorans D-xylonate dehydratase, semicarbazide method; assay type: biochemical, Burkholderia xenovorans LB400; settings: other: 100 nM enzyme, 100 mM Tris-HCl, 5 mM MgSO4, pH 7.5
Excerpt: as §2

[8] = substrate: O=C(O)C(=O)C[C@H](O)CO; test: B. xenovorans 2-keto-3-deoxy-D-xylonate dehydratase, coupled assay with KGSADH; assay type: biochemical, Burkholderia xenovorans LB400; settings: other: coupled assay, substrate from 0-20 mM D-xylonate, 1 mM NAD+, pH 7.5, 25° C.
Experimental: as §1

[9] = substrate: OC1OC[C@H](O)[C@H](O)[C@H]1O; test: L-arabinose dehydrogenase, NADH generation at 340 nm; assay type: biochemical, Burkholderia multivorans; settings: other: L-arabinose 0 to 10 mM, 1 mM NAD+, pH 7.5, 30° C.
Experimental: A series of enzymatic assays were conducted to estimate the initial activity as a function of starting substrate concentration. […] Kinetic constants (kcat/Km) for following enzymes were calculated with the same method.

B1: Caulobacter crescentus 2-keto-3-deoxy-D-xylonate dehydratase (XylX) (Caulobacter vibrioides NA1000) (protein)
chain: MGVSEFLPEDWKAATLLGRIDFGEGPTPVLVRGGRVEDVSKIAPTVADLMNAFQPGAVIPRGEDKGPLEALDIRPVWEDPDGAAPVKLLAPVDLQCLKAAGVTFAVSTLERVIEERARGDAGEALKIRTLLAERMGGDLKSVEPGSQGAQRLKDALIADGLWSQYLEVAIGPDAEIFTKGPTLSSMGWGDQVGVRYDSHWNNPEPEVVLLCDGSGLIRGAALGNDVNLRDFEGRSALLLSKAKDNNASCAIGPFFRLFDETFGLDDVRSAEVELKITGRDNFVLDGKSNMSLISRDPAVLAGQAYGKQHQYPDGFALFLGTMFAPIQDRDTPGQGFTHKVGDRVRVSTPKLGVLENEVTTCDKAKPWTFGISALIRNLAGRGLL
notes: coupled with XylD and KGSADH; BlpI site removed in gene
For B1, the Km [1] was 1.9 ± 0.08 mM, the kcat [1] was 0.53 ± 0.1 s⁻¹ and the kcat/Km [1] was 0.26 s⁻¹ mM⁻¹.

B2: Pseudomonas putida KT2440 uronate dehydrogenase (Udh) (Pseudomonas putida KT2440) (protein)
chain: MTTTPFNRLLLTGAAGGLGKVLRERLKGYAEVLRLSDISPMAPAAGPHEEVITCDLADKAAVHTLVEGVDAIIHFGGVSTEHAFEEILGPNICGVFHVYEAARKHGVKRIIFASSNHTIGFYRQDERIDAHAPRRPDSYYGLSKCYGEDVASFYFDRYGIETVSIRIGSSFPQPQNLRMLCTWLSYDDLVQLIERGLFTPGVGHTIVYGASDNRTVWWDNRHAAHLGYVPKDSSETFRAAVEAQPAPAADDPSMVYQGGAFAVAGPFN
Protein B2 has a Km [2] of 0.15 mM and a kcat [2] of 24.1 s⁻¹.

B3: E. coli D-galactarate dehydratase (GarD) (Escherichia coli K-12) (protein)
chain: MANIEIRQETPTAFYIKVHDTDNVAIIVNDNGLKAGTRFPDGLELIEHIPQGHKVALLDIPANGEIIRYGEVIGYAVRAIPRGSWIDESMVVLPEAPPLHTLPLATKVPEPLPPLEGYTFEGYRNADGSVGTKNLLGITTSVHCVAGVVDYVVKIIERDLLPKYPNVDGVVGLNHLYGCGVAINAPAAVVPIRTIHNISLNPNFGGEVMVIGLGCEKLQPERLLTGTDDVQAIPVESASIVSLQDEKHVGFQSMVEDILQIAERHLQKLNQRQRETCPASELVVGMQCGGSDAFSGVTANPAVGYASDLLVRCGATVMFSEVTEVRDAIHLLTPRAVNEEVGKRLLEEMEWYDNYLNMGKTDRSANPSPGNKKGGLANVVEKALGSIAKSGKSAIVEVLSPGQRPTKRGLIYAATPASDFVCGTQQVASGITVQVFTTGRGTPYGLMAVPVIKMATRTELANRWFDLMDINAGTIATGEETIEEVGWKLFHFILDVASGKKKTFSDQWGLHNQLAVFNPAPVT
For B3, the Km [3] was 0.76 mM and the kcat [3] was 18.9 s⁻¹.

B4: Caulobacter crescentus D-xylonate dehydratase (XylD) (Caulobacter vibrioides CB15) (protein)
chain: MRSALSNRTPRRFRSRDWFDNPDHIDMTALYLERFMNYGITPEELRSGKPIIGIAQTGSDISPCNRIHLDLVQRVRDGIRDAGGIPMEFPVHPIFENCRRPTAALDRNLSYLGLVETLHGYPIDAVVLTTGCDKTTPAGIMAATTVNIPAIVLSGGPMLDGWHENELVGSGTVIWRSRRKLAAGEITEEEFIDRAASSAPSAGHCNTMGTASTMNAVAEALGLSLTGCAAIPAPYRERGQMAYKTGQRIVDLAYDDVKPLDILTKQAFENAIALVAAAGGSTNAQPHIVAMARHAGVEITADDWRAAYDIPLIVNMQPAGKYLGERFHRAGGAPAVLWELLQQGRLHGDVLTVTGKTMSENLQGRETSDREVIFPYHEPLAEKAGFLVLKGNLFDFAIMKSSVIGEEFRKRYLSQPGQEGVFEARAIVFDGSDDYHKRINDPALEIDERCILVIRGAGPIGWPGSAEVVNMQPPDHLLKKGIMSLPTLGDGRQSGTADSPSILNASPESAIGGGLSWLRTGDTIRIDLNTGRCDALVDEATIAARKQDGIPAVPATMTPWQEIYRAHASQLDTGGVLEFAVKYQDLAAKLPRHNH
notes: His; made in house; host or cells: E. coli BL21
In the case of B4, the Km [4] is reported as 1.18 ± 0.05 mM, the kcat [4] is reported as 7.6 ± 1.1 s⁻¹ and the kcat/Km [4] is reported as 6.4 s⁻¹ mM⁻¹.

B5: Burkholderia multivorans L-arabonate dehydratase (AraC, BmulJ 5323) (Burkholderia multivorans ATCC 17616) (protein)
chain: MSATKPRLRSAQWFGTNDKNGFMYRSWMKNQGIPDHEFDGRPIIGICNTWSELTPCNAHFRKLAEHVKRGIFEAGGFPVEFPVFSNGESNLRPSAMLTRNLASMDVEEAIRGNPIDAVVLLAGCDKTTPALLMGAASCDVPAIVVSGGPMLNGKLEGKNIGSGTAVWQLHEALKAGEIDLHHFLSAEAGMSRSAGTCNTMGTASTMACMAEALGVALPHNAAIPAVDSRRYVLAHMSGIRIVEMALEGLVLSKVLTRAAFENAIRVNAAIGGSTNAVIHLKAIAGRIGVPLELEDWMRIGRDTPTIVDLMPSGRFLMEEFYYAGGLPAVLRRLGEGGLLPHPDALTVNGKTLWDNVREAPNYDDEVIRPLDRPLIADGGIRILRGNLAPRGAVLKPSAASPELLKHRGRAVVFENFDHYKATINDESLDVDANSVLVLKNCGPRGYPGMAEVGNMGLPPKLLRQGVKDMVRISDARMSGTAYGTVVLHVAPEAAAGGPLAAVRNGDWIELDCEAGTLHLDIPDDELQRRLSDVDPAAAPGVAGQAGKGGYARLYLDHVLQADEGCDLDFLVGTRGAEVPSHSH
notes: gene from B. multivorans genomic DNA
For B5, the kcat [5] was 0.17 s⁻¹.

B6: Burkholderia multivorans 2-keto-3-deoxy-L-arabonate dehydratase (AraD, BmulJ 5321) (Burkholderia multivorans ATCC 17616) (protein)
chain: MTSSRTPRYRGIFPVVPTTFTETGELDLASQKRAVDFMIDAGSDGLCILANFSEQFALADDERDVLTRTILEHVAGRVPVIVTTSHYSTQTCIARSVRAQQLGAAMVMVMPPYHGATFRVPEAQIHAFYARLSDALSIPIMIQDAPASGTVLSAPFLAQLAREIEHVAYFKIETPGAATKLRELIRLGGDAIEGPWDGEEAITLLADLHAGATGAMTGGAYPDGIRPILEAHREGRHDDAFARYQTWLPLINHENRQSGILTAKALMREGGVIACEAPRHPMPTLHPDTRAELIAIARRLDPLVLRWAR
notes: coupled with AraC and KGSADH
Protein B6 has a Km [6] of 9.7 mM and a kcat [6] of 0.23 s⁻¹.

B7: Burkholderia xenovorans LB400 D-xylonate dehydratase (DR64_8449) (Paraburkholderia xenovorans LB400) (protein)
chain: MSASTPRRLRSQEWFDDPSHADMTALYVERFMNYGLTREELQSGRPIIGIAQTGSDLAPCNRHHIELAARTKAGIRDAGGIPMEFPVHPLAEQSRRPTAALDRNLAYLGLVEILHGFPLDGVVLTTGCDKTTPACLMAAATVDMPAIVLSGGPMLDGWHEGKRVGSGTVIWHARNLLATGEIDYEGFMQLTTASSPSIGHCNTMGTALSMNSLAEALGMSLPGCASIPAAYRERGQMAYATGKRIVDLVREDVRPSHIMTKAAFENAIVVASALGASTNCPPHLIAIARHMGVELTLDDWQRVGEQVPLIVNCMPAGEYLGESFHRAGGVPAVLRELVHAQLVHRECLTVSGRTIGEIAADAPSPDRDVIRTTEDPLKHGAGFIVLSGNFFDSAIMKMSVVGEAFRQTYLSEPGNENTFEARAIVFDGPEDYHARINDPSLDIDQHCILVIRGAGTVGYPGSAEVVNMAPPAELVRQGITSLPTLGDGRQSGTSASPSILNMSPEAAVGGGLSLLRTNDRIRVDLNSRSVNVLVDDEELARRRETATFAIPPTQTPWQELYRQTVGQLSTGGCLEPATLYLKVIAERGNPRHSH
notes: gene from LB400 genomic DNA
B7 showed a Km [7] of 1.52 ± 0.08 mM, a kcat [7] of 1.73 ± 0.3 s⁻¹ and a kcat/Km [7] of 1.14 s⁻¹ mM⁻¹.

B8: Burkholderia xenovorans LB400 2-keto-3-deoxy-D-xylonate dehydratase (DR64_8450) (Paraburkholderia xenovorans LB400) (protein)
chain: MSATSPSSFLPDDLGQALLVGRVWRKTDQHEGPSVVVVRGGEVFDITATVPTTADLFDREDAAPLARTAPGVSLGAVAQLIASNLPGAAAPALRLLAPCDVQAIKACGVTFAVSLIERVIEEQAAGDPAKAKEVRDTIASMIGTDLSKIEPGSDAAMKLKAELERRGAWSQYMEVGIGPDAEVFSKSQPMSAVGFGADVGLLAASTWNNPEPEIVLAVNSRGEIVGATLGNDVNLRDIEGRSALLLGKCKDNNGSCAIGPFVRLFDESFSLDSVRTASVALRVEGADDGFVLEGVSHMSEISRDPANLVAQTWGRHHQYPDGFMLFLGTMFSPIKDRDAPGAGFTHHLGDLVTISTPQLGALTNTVRLSTEIEPWTFGVRALYRNLAARGLLASA
notes: coupled with D-xylonate dehydratase and KGSADH
B8 showed a Km [8] of 8.96 ± 0.2 mM, a kcat [8] of 4.72 ± 0.5 s⁻¹ and a kcat/Km [8] of 0.53 s⁻¹ mM⁻¹.

B9: Burkholderia multivorans L-arabinose dehydrogenase (AraA, BmulJ 5320) (Burkholderia multivorans ATCC 17616) (protein)
chain: MSQVVSLGVVGIGKIARDQHLPAIAAEPGFALTACASRHAEVTGVRNYPDLGALLAGEPELAAVSLCAPPQVRYAQARAALNAGKHVMLEKPPGATLGEVAALEALAQSRGLTLFATWHSRCASAVEPARAWLATREIRAVQVRWKEDVRRWHPGQQWIWEPGGLGVFDPGINALSIVTRILPRELVLREATLVVPSDTQTPIAAELECADTDGVPVHAEFDWRHGPVEQWEIAVDTADGVLAISAGGAKLSIAGEPVEVGPAREYPALYAQFHALIARRESDVDVRPLRLVADAFLFGRRVDTEAFGR
notes: as for B5
B9 was tested, and the kcat [9] was 101.4 s⁻¹.

— US20170137855A1, “RECOMBINANT CELLS AND METHODS FOR NONPHOSPHORYLATIVE METABOLISM” (REGENTS OF THE UNIVERSITY OF MINNESOTA, priority 2015, published 2017)
